Experimental data reported in patent publication US20210395372A1 (published 2021).

T1: human Met-Fc chimera (human, UniProt P08581 25-932)
T1 chain: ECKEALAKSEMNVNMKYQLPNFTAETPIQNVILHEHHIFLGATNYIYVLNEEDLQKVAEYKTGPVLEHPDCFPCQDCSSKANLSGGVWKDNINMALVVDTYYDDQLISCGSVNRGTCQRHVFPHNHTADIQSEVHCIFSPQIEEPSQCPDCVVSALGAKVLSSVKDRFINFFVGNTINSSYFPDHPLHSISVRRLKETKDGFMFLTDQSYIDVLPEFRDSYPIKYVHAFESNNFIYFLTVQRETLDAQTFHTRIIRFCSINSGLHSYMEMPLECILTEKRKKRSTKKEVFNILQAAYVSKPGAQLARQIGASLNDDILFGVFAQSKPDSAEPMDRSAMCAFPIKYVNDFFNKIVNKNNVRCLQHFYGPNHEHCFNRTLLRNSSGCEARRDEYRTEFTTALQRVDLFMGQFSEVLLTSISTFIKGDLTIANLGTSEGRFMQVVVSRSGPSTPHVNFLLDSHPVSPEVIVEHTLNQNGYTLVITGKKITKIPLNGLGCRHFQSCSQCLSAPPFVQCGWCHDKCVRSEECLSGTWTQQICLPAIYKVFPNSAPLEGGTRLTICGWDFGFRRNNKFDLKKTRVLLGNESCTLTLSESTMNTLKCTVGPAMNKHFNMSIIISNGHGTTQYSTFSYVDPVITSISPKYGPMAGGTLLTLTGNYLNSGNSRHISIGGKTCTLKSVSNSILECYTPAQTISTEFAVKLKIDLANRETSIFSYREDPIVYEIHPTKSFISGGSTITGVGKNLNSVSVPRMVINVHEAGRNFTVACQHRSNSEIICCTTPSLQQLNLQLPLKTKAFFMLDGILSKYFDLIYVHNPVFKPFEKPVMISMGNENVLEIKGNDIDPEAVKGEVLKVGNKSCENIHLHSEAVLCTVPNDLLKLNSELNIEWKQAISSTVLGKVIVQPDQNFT

B1: hOA-DN30-cl04H08 (antibody)
light: DIVLTQSPASLAVSLGERATINCKASQSVDYDGGSYMSWYQQRPGQPPKLLIYAASNLESGVPDRFSGSGSGTDFTLTIHSLQAEDVATYYCQQSYEDPLTFGGGTKVEIKRTVAAPSVFIFPPSDEQLKSGTASVVCLLNNFYPREAKVQWKVDNALQSGNSQESVTEQDSKDSTYSLSSTLTLSKADYEKHKVYACEVTHQGLSSPVTKSFNRGEC
heavy: not shown
chain: not shown
B2: MvDN30 (Fab, V domains shown)
VH: QVQLQQPGTELVKPGASVKLSCKASGYTFTSYWIHWVKQRPGQGLEWIGEINPSSGRTNYNEKFKNKVTVTVDKSSTTAYMQLSNLTSEDSAVYYCASRGYWGQGTTLTVSS
VL: DIVLTQSPASLAVSLGQRATISCKASQSVDYDGGSYMSWFQQRPGQPPKLLISAASNLESGIPARFSGSGSGTDFTLNIHPVEEEDVATYYCQQSYEDPLTFGAGTKVEIK

Molecular target: T1, human Met-Fc chimera
Assay: ELISA

Row | Binder | Kd
1 | B1 | 0.686 nM
2 | B2 | 0.21 nM
